Molecular target: T1, FG-N, MGT-Nsp1(48–172)-… (S. cerevisiae)
T1 construct: added N-terminal residues; Nsp1, FG nucleoporin, N-terminal Asn-rich segment of low charge with irregularly spaced FG repeats, residues 48-172; Isotope-labelled for NMR; source: E. coli BL21DE3 Gold, purified (8 M urea throughout, Talon resin); also observed inside living E. coli
Experiment: NMR titration; HSQC test of reversibility in buffer A; FG-N 50 μM, Kap95 added to 25 μM, then diluted with more FG-N
Conditions: both partners purified

B1: Kap95 (natural protein, S. cerevisiae)
chain: MSTAEFAQLLENSILSPDQNIRLTSETQLKKLSNDNFLQFAGLSSQVLIDENTKLEGRILAALTLKNELVSKDSVKTQQFAQRWITQVSPEAKNQIKTNALTALVSIEPRIANAAAQLIAAIADIELPHGAWPELMKIMVDNTGAEQPENVKRASLLALGYMCESADPQSQALVSSSNNILIAIVQGAQSTETSKAVRLAALNALADSLIFIKNNMEREGERNYLMQVVCEATQAEDIEVQAAAFGCLCKIMSLYYTFMKPYMEQALYALTIATMKSPNDKVASMTVEFWSTICEEEIDIAYELAQFPQSPLQSYNFALSSIKDVVPNLLNLLTRQNEDPEDDDWNVSMSAGACLQLFAQNCGNHILEPVLEFVEQNITADNWRNREAAVMAFGSIMDGPDKVQRTYYVHQALPSILNLMNDQSLQVKETTAWCIGRIADSVAESIDPQQHLPGVVQACLIGLQDHPKVATNCSWTIINLVEQLAEATPSPIYNFYPALVDGLIGAANRIDNEFNARASAFSALTTMVEYATDTVAETSASISTFVMDKLGQTMSVDENQLTLEDAQSLQELQSNILTVLAAVIRKSPSSVEPVADMLMGLFFRLLEKKDSAFIEDDVFYAISALAASLGKGFEKYLETFSPYLLKALNQVDSPVSITAVGFIADISNSLEEDFRRYSDAMMNVLAQMISNPNARRELKPAVLSVFGDIASNIGADFIPYLNDIMALCVAAQNTKPENGTLEALDYQIKVLEAVLDAYVGIVAGLHDKPEALFPYVGTIFQFIAQVAEDPQLYSEDATSRAAVGLIGDIAAMFPDGSIKQFYGQDWVIDYIKRTRSGQLFSQATKDTARWAREQQKRQLSL
notes: Kap95, nuclear transport factor; also called TF; transport factor; source: prepared as previously described (Tetenbaum-Novatt et al., 2012)
binding result: binds
